Columns and labels:
Format in all cases: cell-based, human
[1] = system: wild-type and variant SNAP-GIPR; assay: Single-concentration GIP cAMP response by HTRF in INS-1 cells; conditions: Fig S3E, mean
Method: (§1) All variants were tested in parallel on each occasion to control for transfection efficiency differences between experiments.

[2] = system: wild-type and variant SNAP-GIPR; assay: Constitutive and agonist-mediated internalization, reversible SNAP-tag labelling, AD293 cells; design: key to Internalisation, Vehicle / Internalisation, +GIP / Internalisation, GIP-only: % internalization: residual fluorescence after Mesna vs pre-Mesna; Surface expression: unit not given here; conditions: Mean
Summary of the method: (§2)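 % internalization = residual specific fluorescence after Mesna / pre-Mesna value. Imaging in TNE buffer pH 8.6; second image 10 min post-Mesna.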

[3] = system: wild-type and variant SNAP-GIPR; assay: Single-concentration GIP cAMP response by HTRF in AD293 cells; conditions: Fig S3F, HTRF, mean;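 note: ratio to experiment-wide average response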
Method: as §1

[4] = system: wild-type and variant SNAP-GIPR; assay: Surface SNAP-GIPR expression (SNAP-tag labelling) in AD293 cells; conditions: for AD293 Surface: Fig S3E, mean; for Surface SNAP-GIPR expression: sheet Fig 1C;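 for all read-outs here: scaled to the experimental average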
Summary of the method: (§3)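 Surface GIPR is quantified from wide-field images after labelling intact transfected cells with a membrane-impermeant SNAP probe at 500 nM for 10 min at room temperature. Specific signal, corrected for nontransfected cells, is normalized to the experiment-wide average or to wild-type.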

[5] = system: wild-type and variant SNAP-GIPR; assay: cADDis cAMP imaging in AD293 cells, ensemble, expression-matched and per decile; conditions: Fig S3F, cADDis, mean
Summary of the method: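 Per-cell cAMP from cADDis intensity over time, with cells excluded by IBMX/FSK response criteria. Expression matching used wild-type surface-SNAP deciles, top and bottom trimmed, mean of decile means. Ensemble values ignore deciles. Wide-field imaging at 37 °C in KRBH with 6 mM glucose, 0.1% BSA, 24 h post-transfection in AD293.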

[6] = system: wild-type and variant SNAP-GIPR; assay: Constitutive and agonist-mediated internalization, reversible SNAP-tag labelling, INS-1 cells; design: key to Internalisation, GIP-only / Internalisation, Vehicle / Internalisation, +GIP: % internalization: residual fluorescence after Mesna vs pre-Mesna; conditions: Mean
Summary of the method: as §2

[7] = system: wild-type and variant SNAP-GIPR; assay: Surface SNAP-GIPR expression (SNAP-tag labelling) in INS-1 cells; conditions: Fig 4G; Mean
Summary of the method: as §3

B1: E463Q (protein, UniProt P48546 22-466, looked up, variant E463Q)
Gastric inhibitory …: RAETGSKGQTAGELYQRWERYRRECQETLAAAEPPSGLACNGSFDMYVCWDYAAPNATARASCPWYLPWHHHVAAGFVLRQCGSDGQWGLWRDHTQCENPEKNEAFLDQRLILERLQVMYTVGYSLSLATLLLALLILSLFRRLHCTRNYIHINLFTSFMLRAAAILSRDRLLPRPGPYLGDQALALWNQALAACRTAQIVTQYCVGANYTWLLVEGVYLHSLLVLVGGSEEGHFRYYLLLGWGAPALFVIPWVIVRYLYENTQCWERNEVKAIWWIIRTPILMTILINFLIFIRILGILLSKLRTRQMRCRDYRLRLARSTLTLVPLLGVHEVVFAPVTEEQARGALRFAKLGFEIFLSSFQGFLVSVLYCFINKEVQSEIRRGWHHCRLRRSLGEEQRQLPERAFRALPSGSGPGEVPTSRGLSSGTLPGPGNEASRELQSYC
INS-1 cAMP (100 nM) [1]: 1.2 | +GIP internalisation (100 nM) ([2]; Fig 4E, GIP 100 nM): 0.6258 | GIP-specific internalisation (100 nM) ([2]; Fig 4E, GIP 100 nM): 0.1525 | Constitutive internalisation (100 nM) ([2]; Fig 4E): 0.4733 | Surface expression ([2]; Fig 4E): 1.14 | Internalisation, +GIP ([2]; Fig S4C, AD293): 55.318 | Internalisation, GIP-only ([2]; Fig S4C, AD293): 13.3425 | Internalisation, Vehicle ([2]; Fig S4C, AD293): 41.9756 | AD293 100 pM HTRF ([3]; AD293, 100 pM): 1.1295 | AD293 100 nM HTRF ([3]; AD293, 100 nM): 1.311 | AD293 Surface ([4]; column repeated, paired with cAMP 100 nM): 1.191 | AD293 Surface ([4]; paired with cAMP 100 pM): 1.191 | Surface SNAP-GIPR expression ([4]; replicate 1): 1.219 | Surface SNAP-GIPR expression ([4]; replicate 2): 1.021 | Surface SNAP-GIPR expression ([4]; replicate 3): 0.7247 | Surface SNAP-GIPR expression ([4]; replicate 4): 1.851 | Surface SNAP-GIPR expression ([4]; replicate 5): 0.8113 | Surface SNAP-GIPR expression ([4]; replicate 6): 1.148 | Surface SNAP-GIPR expression ([4]; replicate 7): 0.8161 | Surface SNAP-GIPR expression ([4]; replicate 8): 1.203 | Surface SNAP-GIPR expression ([4]; replicate 9): 1.004 | Surface SNAP-GIPR expression ([4]; replicate 10): 0.9721 | Surface SNAP-GIPR expression ([4]; replicate 11): 1.39 | Surface SNAP-GIPR expression ([4]; replicate 12): 1.373 | Surface SNAP-GIPR expression ([4]; replicate 13): 1.65 | Surface SNAP-GIPR expression ([4]; replicate 14): 1.648 | Surface SNAP-GIPR expression ([4]; replicate 15): 1.459 | Surface SNAP-GIPR expression ([4]; replicate 16): 1.416 | Surface SNAP-GIPR expression ([4]; replicate 17): 1.284 | Surface SNAP-GIPR expression ([4]; replicate 18): 1.262 | Surface SNAP-GIPR expression ([4]; replicate 19): 1.404 | Surface SNAP-GIPR expression ([4]; replicate 20): 1.518 | Surface SNAP-GIPR expression ([4]; replicate 21): 1.445 | Surface SNAP-GIPR expression ([4]; replicate 22): 1.187 | Surface SNAP-GIPR expression ([4]; replicate 23): 1.117 | Surface SNAP-GIPR expression ([4]; replicate 24): 1.135 | Surface SNAP-GIPR expression ([4]; replicate 25): 1.182 | Surface SNAP-GIPR expression ([4]; replicate 26): 1.219 | Surface SNAP-GIPR expression ([4]; replicate 27): 0.8928 | Surface SNAP-GIPR expression ([4]; replicate 28): 1.514 | Surface SNAP-GIPR expression ([4]; replicate 29): 0.593 | Surface SNAP-GIPR expression ([4]; replicate 30): 0.9046 | Surface SNAP-GIPR expression ([4]; replicate 31): 0.8556 | Surface SNAP-GIPR expression ([4]; replicate 32): 1.334 | Surface SNAP-GIPR expression ([4]; replicate 33): 1.324 | Surface SNAP-GIPR expression ([4]; replicate 34): 1.052 | Surface SNAP-GIPR expression ([4]; replicate 35): 1.061 | Surface SNAP-GIPR expression ([4]; replicate 36): 1.215 | Surface SNAP-GIPR expression ([4]; replicate 37): 1.115 | Surface SNAP-GIPR expression ([4]; replicate 38): 0.8974 | Surface SNAP-GIPR expression ([4]; replicate 39): 1.265 | Surface SNAP-GIPR expression ([4]; replicate 40): 1.153 | Surface SNAP-GIPR expression ([4]; replicate 41): 1.19 | AD293 100 pM cADDis ([5]; AD293, 100 pM): 34.7191 | AD293 100 nM cADDis ([5]; AD293, 100 nM): 36.9 | +GIP internalisation (100 nM) ([6]; Fig 4G, GIP 100 nM): 0.6116 | GIP-specific internalisation (100 nM) ([6]; Fig 4G, GIP 100 nM): 0.1296 | Constitutive internalisation (100 nM) ([6]; Fig 4G): 0.4821 | Internalisation, +GIP ([6]; Fig S4C, INS-1): 48.5083 | Internalisation, GIP-only ([6]; Fig S4C, INS-1): 10.305 | Internalisation, Vehicle ([6]; Fig S4C, INS-1): 38.2033 | Surface expression [7]: 1.282

Source: PMC13544220, “Glycemic and bodyweight effects of GIPR coding variation reflect differences in surface expression and intrinsic functional impairment” (Science Advances, 2026)
